Series [1] deals with T1, wild type DmORC (Drosophila melanogaster, UniProt O16810+Q9W102).
T1 construct: gene Orc1; full-length heterohexamer Orc1-6; 6xHis (Orc1) and MBP (Orc4) tags cut by TEV; Hi5 insect cells; with Origin recognition complex subunit 2; Origin recognition complex subunit 3; Origin recognition complex subunit 5; Origin recognition complex subunit 6
The experiment in a line: NADH-coupled ATPase assay (PK/LDH), Michaelis-Menten fit. The class given is biochemical. To be noted: pH 7.6, 10 mM magnesium acetate, 300 mM potassium glutamate, 27 °C, no DNA; Orc1/4 site.

Series [2] addresses T2, ATP-DmORC (DmORC^Orc1ΔN), DNA-free (Drosophila melanogaster, UniProt O16810+Q24169+Q7K2L1+Q9W102).
T2 construct: gene Orc1; heterohexamer; Orc1 lacking N-terminal 439 residues (truncation inferred for the DNA-free structure); tags cut by TEV; Hi5 insect cells; with Origin recognition complex subunit 2; Origin recognition complex subunit 6
The experiment in a line: cryo-EM structure. To be noted: no DNA, no Cdc6; active conformation. Format: binding.

Series [3] deals with DmORC Orc4-R97A (Drosophila melanogaster, UniProt O16810;Q24168;Q7K2L1;Q9W102;Q24169;Q9Y1B2 1-924;1-618;1-721;1-459;1-460;1-257, R97A). The experiment in a line: fluorescence anisotropy; 1 mM ATP; Anisotropy: 1 nM dsDNA, 25 mM HEPES-KOH pH 7.6, 300 mM K-glutamate, 10 mM Mg-acetate, 10% glycerol, 0.1% NP40, 1 mM DTT, 0.1 mg/mL BSA, 0 or 1 mM ATP, 25 C, 40. To be noted: protein: recombinant; tags: tags cleaved; copies: 1;1;1;1;1;1; label: 5' fluorescein-dT (/5FluorT/) on top strand; blunt 40 bp; the 5' fluorescein-dT may add one unpaired T.

Series [4] deals with DmORC Orc3-K141A (Drosophila melanogaster, UniProt O16810;Q24168;Q7K2L1;Q9W102;Q24169;Q9Y1B2 1-924;1-618;1-721;1-459;1-460;1-257, K141A). The description is as above. To be noted: protein: recombinant; tags: tags cleaved; copies: 1;1;1;1;1;1; label: 5' fluorescein-dT (/5FluorT/) on top strand; blunt 40 bp; the 5' fluorescein-dT may add one unpaired T.
In series [5] the target is T3, DmORC Orc1deltaN;DmCdc6deltaN241 (Drosophila melanogaster;Drosophila …, UniProt O16810;Q24168;Q7K2L1;Q9W102;Q24169;Q9Y1B2;Q9VSM9 …, |del1-241). The experiment in a line: cryo-EM; ATP, Mg2+; state 1, bend ~22 deg; Anisotropy: 1 nM dsDNA, 25 mM HEPES-KOH pH 7.6, 300 mM K-glutamate, 10 mM Mg-acetate, 10% glycerol, 0.1% NP40, 1 mM DTT, 0.1 mg/mL BSA, 0 or 1 mM ATP, 25 C, 40. To be noted: protein: recombinant;recombinant; tags: tags cleaved;6xHis-MBP cleaved by TEV; copies: 1;1;1;1;1;1;1; blunt.

Series [6] has as its target T4, DmORC (Orc1-6) wild type (Drosophila melanogaster, UniProt O16810;Q24168;Q7K2L1;Q9W102;Q24169;Q9Y1B2 1-924;1-618;1-721;1-459;1-460;1-257). The experiment in a line: fluorescence anisotropy; 1 mM ATP; Anisotropy: 1 nM dsDNA, 25 mM HEPES-KOH pH 7.6, 300 mM K-glutamate, 10 mM Mg-acetate, 10% glycerol, 0.1% NP40, 1 mM DTT, 0.1 mg/mL BSA, 0 or 1 mM ATP, 25 C, 40. The following applies: protein: recombinant; tags: 6xHis-Orc1 and MBP-Orc4 tags cleaved by TEV; copies: 1;1;1;1;1;1; label: 5' fluorescein-dT on top strand; blunt 40 bp; the 5' fluorescein-dT may add one unpaired T. (In general: In fluorescence polarisation assays a small probe gives low polarisation when free and higher when bound to something large.)

The target in series [7] is T4, DmORC (Orc1-6) wild type. The experiment in a line: fluorescence anisotropy; 1 mM ATP; Hill fit (quadratic fit 1.7 nM); Anisotropy: 1 nM dsDNA, 25 mM HEPES-KOH pH 7.6, 300 mM K-glutamate, 10 mM Mg-acetate, 10% glycerol, 0.1% NP40, 1 mM DTT, 0.1 mg/mL BSA, 0 or 1 mM ATP, 25 C, 40. To be noted: protein: recombinant; tags: 6xHis-Orc1 and MBP-Orc4 tags cleaved by TEV; copies: 1;1;1;1;1;1; label: 5' fluorescein-dT on top strand; blunt 40 bp; the 5' fluorescein-dT may add one unpaired T.

Series [8] concerns the target DmORC Orc1deltaN (Drosophila melanogaster, UniProt O16810;Q24168;Q7K2L1;Q9W102;Q24169;Q9Y1B2 440-924;1-618;1-721;1-459;1-460;1-257). The experiment in a line: cryo-EM; gel filtration; ATP, Mg2+; Anisotropy: 1 nM dsDNA, 25 mM HEPES-KOH pH 7.6, 300 mM K-glutamate, 10 mM Mg-acetate, 10% glycerol, 0.1% NP40, 1 mM DTT, 0.1 mg/mL BSA, 0 or 1 mM ATP, 25 C, 40. To be noted: protein: recombinant; tags: tags cleaved; copies: 1;1;1;1;1;1; blunt. A general note: Size exclusion chromatography separates by hydrodynamic size, large species first.

The target of series [9] is T3, DmORC Orc1deltaN;DmCdc6deltaN241. The experiment in a line: cryo-EM; gel filtration; ATP, Mg2+; DNA bent 46 deg; Anisotropy: 1 nM dsDNA, 25 mM HEPES-KOH pH 7.6, 300 mM K-glutamate, 10 mM Mg-acetate, 10% glycerol, 0.1% NP40, 1 mM DTT, 0.1 mg/mL BSA, 0 or 1 mM ATP, 25 C, 40. To be noted: protein: recombinant;recombinant; tags: tags cleaved;6xHis-MBP cleaved by TEV; copies: 1;1;1;1;1;1;1; blunt.

As usually defined, the Kd is the concentration at which binding is half-saturated.

T2 sequence (O16810 440-924, stated change not applied): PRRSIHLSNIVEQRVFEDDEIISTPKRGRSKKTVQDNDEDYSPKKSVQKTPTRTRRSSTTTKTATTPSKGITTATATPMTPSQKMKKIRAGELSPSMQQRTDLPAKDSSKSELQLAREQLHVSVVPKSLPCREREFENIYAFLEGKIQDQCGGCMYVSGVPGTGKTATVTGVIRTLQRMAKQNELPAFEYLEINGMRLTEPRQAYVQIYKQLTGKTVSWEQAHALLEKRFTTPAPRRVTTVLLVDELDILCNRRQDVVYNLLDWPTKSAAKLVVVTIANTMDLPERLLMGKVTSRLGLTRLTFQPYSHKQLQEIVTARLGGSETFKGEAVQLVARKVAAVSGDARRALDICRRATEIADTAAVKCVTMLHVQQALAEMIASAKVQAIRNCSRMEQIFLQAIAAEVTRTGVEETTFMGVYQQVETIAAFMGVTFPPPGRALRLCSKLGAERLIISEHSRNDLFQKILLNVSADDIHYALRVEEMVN
T2 sequence (Q9W102 1-459, stated change not applied): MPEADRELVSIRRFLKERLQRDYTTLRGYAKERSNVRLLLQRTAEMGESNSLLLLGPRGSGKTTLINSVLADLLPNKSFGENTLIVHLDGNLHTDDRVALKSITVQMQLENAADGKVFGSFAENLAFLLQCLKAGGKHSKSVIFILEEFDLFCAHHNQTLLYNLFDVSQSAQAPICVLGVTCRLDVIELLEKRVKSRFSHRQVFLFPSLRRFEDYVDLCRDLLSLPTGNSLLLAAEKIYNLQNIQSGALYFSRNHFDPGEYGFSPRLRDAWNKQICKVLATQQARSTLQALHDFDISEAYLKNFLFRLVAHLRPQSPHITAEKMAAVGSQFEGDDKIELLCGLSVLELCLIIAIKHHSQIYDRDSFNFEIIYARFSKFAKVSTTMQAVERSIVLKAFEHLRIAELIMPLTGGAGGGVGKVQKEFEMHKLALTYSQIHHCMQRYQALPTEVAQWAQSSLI
T2 sequence (Q24169 whole entry, stated change not applied, the tested form may be a part): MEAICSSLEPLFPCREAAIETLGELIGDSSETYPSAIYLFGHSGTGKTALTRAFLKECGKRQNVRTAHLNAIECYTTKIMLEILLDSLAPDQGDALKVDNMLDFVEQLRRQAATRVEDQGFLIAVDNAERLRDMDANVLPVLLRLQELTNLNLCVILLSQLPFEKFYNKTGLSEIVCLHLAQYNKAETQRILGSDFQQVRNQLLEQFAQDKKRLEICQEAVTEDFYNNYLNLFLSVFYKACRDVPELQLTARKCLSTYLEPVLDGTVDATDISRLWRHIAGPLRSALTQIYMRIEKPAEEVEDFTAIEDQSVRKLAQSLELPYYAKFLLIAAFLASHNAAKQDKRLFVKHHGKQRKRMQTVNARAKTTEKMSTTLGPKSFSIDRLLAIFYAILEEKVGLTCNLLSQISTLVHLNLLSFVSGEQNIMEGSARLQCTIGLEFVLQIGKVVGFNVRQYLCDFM
T2 sequence (Q7K2L1 1-721, stated change not applied): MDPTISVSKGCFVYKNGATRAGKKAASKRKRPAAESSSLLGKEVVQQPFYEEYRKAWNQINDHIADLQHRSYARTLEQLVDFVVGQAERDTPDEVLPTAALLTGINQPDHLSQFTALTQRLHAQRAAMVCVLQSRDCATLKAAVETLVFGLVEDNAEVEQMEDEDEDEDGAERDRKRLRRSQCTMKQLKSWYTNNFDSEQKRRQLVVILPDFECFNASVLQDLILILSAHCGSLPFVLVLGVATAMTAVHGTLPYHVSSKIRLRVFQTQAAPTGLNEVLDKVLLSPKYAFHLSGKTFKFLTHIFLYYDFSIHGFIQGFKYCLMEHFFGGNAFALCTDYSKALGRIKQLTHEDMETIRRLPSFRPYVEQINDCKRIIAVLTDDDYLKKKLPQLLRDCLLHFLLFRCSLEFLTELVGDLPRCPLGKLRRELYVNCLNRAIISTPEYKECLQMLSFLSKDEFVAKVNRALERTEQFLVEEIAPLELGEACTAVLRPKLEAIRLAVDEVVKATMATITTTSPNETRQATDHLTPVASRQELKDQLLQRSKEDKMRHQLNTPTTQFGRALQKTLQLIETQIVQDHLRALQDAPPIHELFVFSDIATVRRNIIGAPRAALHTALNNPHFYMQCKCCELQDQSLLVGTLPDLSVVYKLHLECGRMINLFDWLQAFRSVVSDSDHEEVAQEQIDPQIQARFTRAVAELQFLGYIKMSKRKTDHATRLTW
T2 sequence (Q24168 whole entry partner, the tested form may be a part): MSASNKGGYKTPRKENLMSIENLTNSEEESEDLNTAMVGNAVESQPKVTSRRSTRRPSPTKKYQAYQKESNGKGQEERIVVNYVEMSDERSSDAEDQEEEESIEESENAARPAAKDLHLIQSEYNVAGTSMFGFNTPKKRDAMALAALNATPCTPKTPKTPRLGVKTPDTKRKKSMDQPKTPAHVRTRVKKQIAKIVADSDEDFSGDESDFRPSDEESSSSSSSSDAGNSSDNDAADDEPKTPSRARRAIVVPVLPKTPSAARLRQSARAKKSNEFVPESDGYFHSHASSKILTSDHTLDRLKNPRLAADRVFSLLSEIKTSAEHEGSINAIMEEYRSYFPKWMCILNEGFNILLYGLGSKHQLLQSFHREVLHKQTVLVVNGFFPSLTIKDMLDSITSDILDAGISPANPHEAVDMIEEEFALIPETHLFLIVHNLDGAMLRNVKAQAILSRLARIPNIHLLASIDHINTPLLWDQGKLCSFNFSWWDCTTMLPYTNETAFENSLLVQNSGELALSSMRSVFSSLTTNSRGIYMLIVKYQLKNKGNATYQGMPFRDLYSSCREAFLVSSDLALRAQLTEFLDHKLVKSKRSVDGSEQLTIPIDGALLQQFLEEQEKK
T2 sequence (Q9Y1B2 whole entry partner, the tested form may be a part): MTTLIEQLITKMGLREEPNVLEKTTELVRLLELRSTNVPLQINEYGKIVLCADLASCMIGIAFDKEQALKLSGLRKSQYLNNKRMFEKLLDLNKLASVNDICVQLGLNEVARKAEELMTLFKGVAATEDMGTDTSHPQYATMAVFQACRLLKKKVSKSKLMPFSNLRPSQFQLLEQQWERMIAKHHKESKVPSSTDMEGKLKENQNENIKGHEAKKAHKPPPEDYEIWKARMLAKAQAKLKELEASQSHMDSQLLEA
T1 sequence (O16810 whole entry): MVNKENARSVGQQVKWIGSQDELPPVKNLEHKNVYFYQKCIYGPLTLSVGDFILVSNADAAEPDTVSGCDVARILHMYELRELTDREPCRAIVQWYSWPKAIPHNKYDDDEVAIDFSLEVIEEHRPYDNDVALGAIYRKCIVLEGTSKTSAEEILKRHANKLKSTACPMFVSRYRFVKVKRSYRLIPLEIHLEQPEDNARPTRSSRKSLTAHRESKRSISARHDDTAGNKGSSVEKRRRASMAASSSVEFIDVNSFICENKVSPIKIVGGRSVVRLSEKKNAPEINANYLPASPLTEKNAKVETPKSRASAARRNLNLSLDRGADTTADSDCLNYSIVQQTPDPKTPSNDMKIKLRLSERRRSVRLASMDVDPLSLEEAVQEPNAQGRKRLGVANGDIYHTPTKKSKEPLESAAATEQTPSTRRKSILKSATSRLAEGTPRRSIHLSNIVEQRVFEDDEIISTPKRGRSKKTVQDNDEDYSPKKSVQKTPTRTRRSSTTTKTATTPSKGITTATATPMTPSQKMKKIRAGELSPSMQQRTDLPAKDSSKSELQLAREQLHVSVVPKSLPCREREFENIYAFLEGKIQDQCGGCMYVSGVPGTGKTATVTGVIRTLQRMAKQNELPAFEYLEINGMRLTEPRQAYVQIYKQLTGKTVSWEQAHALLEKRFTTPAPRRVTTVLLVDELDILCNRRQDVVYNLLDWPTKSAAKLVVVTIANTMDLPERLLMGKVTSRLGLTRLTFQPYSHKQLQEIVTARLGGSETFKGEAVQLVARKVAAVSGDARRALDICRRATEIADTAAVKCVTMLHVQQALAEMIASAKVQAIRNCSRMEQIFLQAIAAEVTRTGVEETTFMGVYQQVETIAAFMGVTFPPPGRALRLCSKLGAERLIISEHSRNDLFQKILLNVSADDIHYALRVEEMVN
T1 sequence (Q9W102 1-459): as the sequence (Q9W102 1-459, stated change not applied) above
T1 sequence (Q24168 whole entry partner): as the sequence (Q24168 whole entry partner, the tested form may be a part) above
T1 sequence (Q7K2L1 1-721 partner): as the sequence (Q7K2L1 1-721, stated change not applied) above
T1 sequence (Q24169 whole entry partner): as the sequence (Q24169 whole entry, stated change not applied, the tested form may be a part) above
T1 sequence (Q9Y1B2 whole entry partner): as the sequence (Q9Y1B2 whole entry partner, the tested form may be a part) above

As for `Nc1ncnc2c1ncn2[C@@H]1O[C@H](COP(=O)(O)OP(=O)(O)OP(=O)(O)O)[C@@H](O)[C@H]1O` [ATP], in series [1], the “NADH-coupled ATPase assay (PK/LDH), Michaelis-Menten fit” value is “we measured the ATP hydrolysis rates of wild type DmORC”. Moreover, in [2], the cryo-EM structure result is recorded as “our DNA-free ATP-DmORC cryo-EM structure”.

B1: 40 bp AT-rich (ARS1-like) (dsDNA)
DNA 1: TTTTGAAAAGCAAGCATAAAAGATCTAAACATAAAATCTG
DNA 2: CAGATTTTATGTTTAGATCTTTTATGCTTGCTTTTCAAAA
As to B1, the binding signal in series [3] and in [4] was ~3 fold higher Kd than wild type each time.

B2: 60 bp poly(dA.dT) (dsDNA)
DNA 1: AAAAAAAAAAAAAAAAAAAAAAAAAAAAAAAAAAAAAAAAAAAAAAAAAAAAAAAAAAAA
DNA 2: TTTTTTTTTTTTTTTTTTTTTTTTTTTTTTTTTTTTTTTTTTTTTTTTTTTTTTTTTTTT
As to B2, in series [5], the binding result is “binds”.

B3: 40 bp 100% GC (dsDNA)
DNA 1: CGCCGGGGCCGGGGGCGCCCCGCCGCGCGGGGCCGGGCCC
DNA 2: GGGCCCGGCCCCGCGCGGCGGGGCGCCCCCGGCCCCGGCG
Regarding B3, the binding signal in series [6] is ~20 fold higher Kd than poly(dA.dT).

B4: 40 bp poly(dA.dT) (dsDNA)
DNA 1: TTTTTTTTTTTTTTTTTTTTTTTTTTTTTTTTTTTTTTTT
DNA 2: AAAAAAAAAAAAAAAAAAAAAAAAAAAAAAAAAAAAAAAA
On to B4, for which the Kd in series [7] was found to be 2.1 nM.

B5: 60 bp AT-rich (dsDNA)
DNA 1: CCTGCAGGCCTTTTGAAAAGCAAGCATAAAAGATCTAAACATAAAATCTGTAAAATAACA
DNA 2: TGTTATTTTACAGATTTTATGTTTAGATCTTTTATGCTTGCTTTTCAAAAGGCCTGCAGG
In the case of B5, the binding result in series [8] and in series [9] was “binds” each time.

Source of the values: paper PMC7450096, “Structural mechanism for replication origin binding and remodeling by a metazoan origin recognition complex and its co-loader Cdc6” (Nature Communications, 2020).
